{"source": "paper PMC9756111", "about": "“Stabilization of DNA fork junctions by Smc5/6 complexes revealed by single-molecule imaging”", "molecules": {"B1": {"name": "capture01 ssDNA-Alexa594 (ssDNA)", "DNA": "ATATATCTGACGCGTGCCTGGAGACTGGGGAGTAATCCTCTTGGCGGTTAAA", "modifications": "Alexa594 between ...GCGGTT and AAA"}, "B2": {"name": "capture01/capture02 dsDNA-Alexa594 (dsDNA)", "DNA 1": "B1 DNA", "DNA 2": "TTTAACCGCCAAGAGGATTACTCCCCAGTCTCCAGGCACGCGTCAGATATATACATCCTGT", "modifications": "Alexa594 between ...GCGGTT and AAA of strand 1"}}, "key": {"[1]": {"target": "Smc5/6 holocomplex (budding yeast) (UniProt Q12749)", "assay": "single-molecule dual-colour Qdot co-detection (TIRF, DNA curtains); as a1, but buffer exchanged to 250 mM NaCl: Smc5/6 diffusing freely on double-tethered dsDNA (after equilibration on DNA); cluster size by statistical inference, assuming no unlabelled complexes (lower limit)"}, "[2]": {"target": "Smc5/6 holocomplex (budding yeast) (UniProt Q12749)", "assay": "single-molecule dual-colour Qdot co-detection (TIRF, DNA curtains); Smc5/6 labelled with equal amounts of Qdot605 and Qdot705 anti-HA on the same epitope in 50 mM NaCl-Buffer R; puncta counted as they first appear on double-tethered dsDNA curtains (oligomers in solution), and binding at sites of previously bound Smc5/6; cluster size by statistical inference, assuming no unlabelled complexes (lower limit)"}, "Smc5/6 holocomplex [3]": {"target": "T1, Smc5/6 holocomplex (Saccharomyces cerevisiae (W303 …, UniProt Q08204;Q12749;Q07913;P38632;Q05541;P43124;Q03718;P40026 …))", "assay": "single-molecule capture on DNA curtain (TIRF); Smc5/6 preloaded on lambda dsDNA; 16 nM oligo; 1 mM ATP; mean about 4.0 oligos per punctum; Buffer R (composition not in material); dsDNA binding in 25 mM NaCl + 25 mM KCl, capture in 50 mM NaCl + 1 mM ATP; other steps 50-250 mM NaCl; pH and temperature not given in material", "conditions": "protein: recombinant; tags: Smc6-3xStrepII; Nse4-His-3HA (Qdot anti-HA label); copies: 1;1;1;1;1;1;1;1; label: Alexa594; single stranded"}, "Smc5/6 holocomplex [4]": {"target": "T1, Smc5/6 holocomplex", "assay": "single-molecule capture on DNA curtain (TIRF); Smc5/6 preloaded on lambda dsDNA; 1 mM ATP; mean about 3.2 per punctum; Buffer R (composition not in material); dsDNA binding in 25 mM NaCl + 25 mM KCl, capture in 50 mM NaCl + 1 mM ATP; other steps 50-250 mM NaCl; pH and temperature not given in material", "conditions": "protein: recombinant; tags: Smc6-3xStrepII; Nse4-His-3HA (Qdot anti-HA label); copies: 1;1;1;1;1;1;1;1; label: Alexa594; 3' overhang 9 nt on strand 2"}}, "data": [{"molecule": "Smc5/6 holocomplex (from UniProt Q12749 1-1114; Q08204 1-1093; Q07913 1-336; P38632 1-267; Q05541 1-303; P43124 1-402; Q03718 1-556)", "values": [{"measurement": "N, mean cluster size with a truncated Poissonian model (Smc5/6 per punctum)", "setting": "[1]", "result": "3 to 4"}, {"measurement": "fraction of puncta with both colours", "setting": "[1]", "result": 67, "unit": "%"}, {"measurement": "stoichiometry N (Smc5/6 per punctum)", "setting": "[1]", "result": "2 to 3"}, {"measurement": "N, mean cluster size with a truncated Poissonian model (Smc5/6 per punctum)", "setting": "[2]", "result": "2 to 3"}, {"measurement": "fraction of binding events from solution with both colours", "setting": "[2]", "result": 39, "unit": "%"}, {"measurement": "fraction of complexes that oligomerized on DNA (bound to previously bound Smc5/6)", "setting": "[2]", "result": 10, "unit": "%"}, {"measurement": "stoichiometry N (Smc5/6 complexes per punctum)", "setting": "[2]", "result": 2}]}, {"molecule": "B1", "values": [{"measurement": "binding result", "setting": "Smc5/6 holocomplex [3]", "result": "binds"}]}, {"molecule": "B2", "values": [{"measurement": "binding result", "setting": "Smc5/6 holocomplex [4]", "result": "binds"}]}]}
